# Values quoted from earlier work in US9133245B2, “Cyclic lactadherin peptide mimetics and their uses” (TRUSTEES OF BOSTON COLLEGE, priority 2011, dated 2015).
# B1: Lactadherin: 47 kDa glycoprotein, natural PS-binding protein (protein, UniProt Q08431 24-387, looked up)
# Lactadherin: LDICSKNPCHNGGLCEEISQEVRGDVFPSYTCTCLKGYAGNHCETKCVEPLGLENGNIANSQIAASSVRVTFLGLQHWVPELARLNRAGMVNAWTPSSNDDNPWIQVNLLRRMWVTGVVTQGASRLASHEYLKAFKVAYSLNGHEFDFIHDVNKKHKEFVGNWNKNAVHVNLFETPVEAQYVRLYPTSCHTACTLRFELLGCELNGCANPLGLKNNSIPDKQITASSSYKTWGLHLFSWNPSYARLDKQGNFNAWVAGSYGNDQWLQVDLGSSKEVTGIITQGARNFGSVQFVASYKVAYSNDSANWTEYQDPRTGSSKIFPGNWDNHSHKKNLFETPILARYVRILPVAWHNRIALRLELLGC
# Tested on: PS
# Details: without cofactors; cited from earlier work
molecule,measurement,value
B1,affinity of binding to PS,nanomolar
